Measurements taken from IntAct's records for PubMed 17974954.

B1: Tyrosine-protein phosphatase non-receptor type 1 (Homo sapiens), P18031 (parent)
chain: MEMEKEFEQIDKSGSWAAIYQDIRHEASDFPCRVAKLPKNKNRNRYRDVSPFDHSRIKLHQEDNDYINASLIKMEEAQRSYILTQGPLPNTCGHFWEMVWEQKSRGVVMLNRVMEKGSLKCAQYWPQKEEKEMIFEDTNLKLTLISEDIKSYYTVRQLELENLTTQETREILHFHYTTWPDFGVPESPASFLNFLFKVRESGSLSPEHGPVVVHCSAGIGRSGTFCLADTCLLLMDKRKDPSSVDIKKVLLEMRKFRMGLIQTADQLRFSYLAVIEGAKFIMGDSSVQDQWKELSHEDLEPPPEHIPPPPRPPKRILEPHNGKCREFFPNHQWVKEETQEDKDCPIKEEKGSPLNAAPYGIESMSQDTEVRSRVVGGSLRGAQAASPAKGEPSLPEKDEDHALSYWKPFLVNMCVATVLTAGAYLCYRFLFNSNT

Variants of: B1
Conditions: with src_human SRC

Row | Variant | effect of a mutation on the interaction
1 | C215S | disrupting interaction
